Reference: US20230357857, “NUCLEIC ACID NANOSTRUCTURES WITH TUNABLE FUNCTIONAL STABILITY” (National University of Singapore, published 2023)

B1: miR-1827 Aptamer + miR-1827 specific strand (dsDNA)
DNA 1: AGTAGATTGAATCGGACAATGTACAGTATTGTCCG
DNA 2: ATTCAATCTACTGCCTCA
B2: hnRNPA2B1 Aptamer + hnRNPA2B1 specific strand (dsDNA)
DNA 1: TGCCTATCAGTATGACCAATGTACAGTATTGGTCA
DNA 2: TACTGATAGGCAGTCTGG
B3: miR-223-5p Aptamer + miR-223 specific strand (dsDNA)
DNA 1: ACAAGCTGAGTTCGCCAATGTACAGTATTGGCG
DNA 2: AACTCAGCTTGTCAAATA
B4: PCGEM1 Aptamer + PCGEM1 specific strand (dsDNA)
DNA 1: CCTCAGAAATCTCGGCAATGTACAGTATTGCCG
DNA 2: AGATTTCTGAGGGGAATT
B5: ACTB Aptamer + ACTB specific strand (dsDNA)
DNA 1: ACGCAACTAAGTGACCAATGTACAGTATTGGTC
DNA 2: ACTTAGTTGCGTTACACC
B6: GAS5 Aptamer + GAS5 specific strand (dsDNA)
DNA 1: TGTCTTCATGTCTAGCCAATGTACAGTATTGGCTA
DNA 2: GACATGAAGACAGTTCCT
B7: GAPDH Aptamer + GAPDH specific strand (dsDNA)
DNA 1: TTCTCAAGACGGAATCAATGTACAGTATTGATT
DNA 2: CCGTCTTGAGAAACCTGC
B8: NEAT1 Aptamer + NEAT1 specific strand (dsDNA)
DNA 1: TTAGCGCCAAACTAGCAATGTACAGTATTGCTA
DNA 2: GTTTGGCGCTAAACTCTT

Target: Taq DNA polymerase (UniProt P19821 P19821:1-832)
Sequence (P19821 whole entry, one chain of several): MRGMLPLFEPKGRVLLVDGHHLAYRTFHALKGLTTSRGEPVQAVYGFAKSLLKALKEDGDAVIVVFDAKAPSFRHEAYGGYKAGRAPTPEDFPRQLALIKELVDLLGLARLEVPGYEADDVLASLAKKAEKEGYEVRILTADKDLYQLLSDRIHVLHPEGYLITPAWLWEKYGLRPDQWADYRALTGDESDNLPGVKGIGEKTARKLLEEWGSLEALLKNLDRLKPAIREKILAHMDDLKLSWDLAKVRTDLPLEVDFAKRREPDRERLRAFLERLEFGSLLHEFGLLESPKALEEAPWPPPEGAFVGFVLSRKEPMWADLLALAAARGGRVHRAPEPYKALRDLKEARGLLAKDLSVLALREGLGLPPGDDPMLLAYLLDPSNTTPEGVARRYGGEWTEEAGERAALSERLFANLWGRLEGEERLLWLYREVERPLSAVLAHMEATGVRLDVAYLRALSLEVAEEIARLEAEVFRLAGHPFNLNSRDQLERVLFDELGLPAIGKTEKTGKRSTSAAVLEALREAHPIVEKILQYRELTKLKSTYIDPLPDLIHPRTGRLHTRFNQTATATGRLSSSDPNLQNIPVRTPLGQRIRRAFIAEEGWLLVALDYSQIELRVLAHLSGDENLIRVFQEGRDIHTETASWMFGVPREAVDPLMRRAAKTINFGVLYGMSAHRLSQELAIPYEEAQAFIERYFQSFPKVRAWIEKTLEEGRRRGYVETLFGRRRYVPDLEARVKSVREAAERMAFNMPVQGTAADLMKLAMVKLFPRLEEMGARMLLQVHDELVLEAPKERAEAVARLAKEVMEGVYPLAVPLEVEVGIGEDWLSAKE
Assay: inhibition; >80% signal with target; 1.5 mM MgCl2
Settings: tags: Promega; partial duplex plus stabilizer hairpin

| Binder | activity |
| --- | --- |
| B1 | < 10 % signal without target |
| B2 | < 10 % signal without target |
| B3 | < 10 % signal without target |
| B4 | < 10 % signal without target |
| B5 | < 10 % signal without target |
| B6 | < 10 % signal without target |
| B7 | < 10 % signal without target |
| B8 | < 10 % signal without target |
